B1: Intersectin-2, residues 1129 to 1183; numbered along this chain, Q9NZM3 (parent)
chain: VCQVIAMYDYAANNEDELSFSKGQLINVMNKDDPDWWQGEINGVTGLFPSNYVKM

Variants of: B1
Assay: abundance fitness (aPCA) (normalised: wild type 0, dead -1); higher = more abundant; growth selection in yeast, the domain comes from the species named
Conditions: Homo sapiens

Abundance fitness, by site and new letter:
V1: K 0.089, W -0.391, I 0.077, C -0.307, M -0.178, S -0.21
Y10: F -0.084, T -0.865, P -0.913, Q -0.505, W -0.037, G -0.761, R -0.063, E -0.853, V -0.455, S -0.427, M -0.256, A -0.66, I -0.494, K -0.144, N -0.249, H -0.124, D -0.777
M7: W -0.188, G -0.081, F -0.168, R -0.115, I 0.002, K -0.139, D 0.007, S 0.029, E -0.057, V -0.065, Q -0.049, P -0.897, N -0.088, C -0.02, A -0.078, Y -0.036
A11: N -0.016, M -0.053, Y -0.111, S -0.007, D 0.007, P -0.069, E 0.025, Q -0.003, K 0.013, F -0.055, V -0.072, T -0.041, G -0.03, L -0.064, R -0.01, C -0.048, H 0.042, W -0.117
A12: V -0.334, N 0.052, G -0.068, D -0.503, H -0.221, E -0.172, L -0.578, C -0.115, W -0.685, S -0.056, F -0.663, Y -0.455, T -0.038, P -0.144, M -0.129, K -0.012, I -0.469, Q -0.046
V4: N -0.688, A -0.027, T -0.079, E -0.405, H -0.205, L -0.297, Y 0.032, Q -0.349, I -0.478, W -0.079, R -0.458, S -0.064, K -0.62, D -0.511, G -0.041, F -0.004
D9: P -0.098, S -0.069, L -0.571, H -0.025, G -0.061, E -0.117, F -0.364, N -0.039, Y -0.371, R -0.131, A 0.019, K -0.189, T -0.084, V -0.38, I -0.594, W -0.383, M -0.177, Q -0.133, C -0.189
N13: D -0.033, G 0.031, I -0.071, F -0.092, C -0.047, A -0.024, H 0.106, E -0.017
Y8: A -0.002, T -0.122, F 0.09, D -0.197, W -0.052, Q -0.084, L -0.005, E -0.002, S 0.001, G -0.063, P -0.787, V -0.045, M -0.011, R 0.012, H -0.162, K 0.074, C -0.011, N 0.011
C2: Y 0.022, N 0.147, F 0.023, D -0.041, L -0.223, G -0.099, I -0.116, S -0.006, P -0.108, M -0.13, A -0.116, T -0.126, W -0.122, Q -0.107, E -0.3
A6: L -1.02, F -1.03, V -0.576, N -0.928, S -0.057, C -0.154, T 0.026, I -0.988, G -0.163, D -0.93, W -1.02, H -0.923, Y -0.927, P -0.585, R -0.883, Q -0.966

Reference: the Human Domainome abundance scans (Beltran et al. 2025)
